Substitutions are numbered along the chain they refer to. Values belong to the binder of their own block, whether it stands above or below them.
Biological target: Gab2 608-620 (Homo sapiens), Q9UQC2
Test: flow

Kd: 1.7 nM
B1: SHP2 N-SH2, Q06124 (protein)
chain: WFHPNITGVEAENLLLTRGVDGSFLARPSKSNPGDFALSVRRNGAVTHIKIQNTGDYYDLYGGEKFATLAELVQYYMEHHGQLKEKNGDVIELKYPL

Kd: 5.3 nM
B2: SHP2 N-SH2, Q06124 (protein)
chain: B1 chain with A37S
